Data published in PMC3915414.

Assays:
Experiment in all cases: solid-phase binding assay
[1] = target: alpha-dystroglycan from dystrophin/utrophin-deficient (dko) mouse heart (mouse (endogenous in heart)) (UniProt Q62165)
[2] = target: alpha-dystroglycan from dystrophin-deficient (mdx) mouse heart (mouse (endogenous in heart)) (UniProt Q62165)
[3] = target: alpha-dystroglycan from wild-type (C57BL/10) mouse heart (mouse (endogenous in heart)) (UniProt Q62165)

Engelbreth-Holm-Swarm (EHS) laminin (from UniProt P19137 25-3083; P02469 22-1786; P02468 34-1607) (complex)
Kd [1]: 0.0188 µM | Kd [2]: 0.033 µM | Kd [3]: 0.0212 µM
